The source of these data is patent EP4624499A1 (Immunotech Applied Science Limited, dated 2025).

Test [1] deals with CMV pp65501-509 antigen complex on Caki-2-PP65 target cells (human; human cytomegalovirus, UniProt P61769 21-119). The test is described as follows: cell-based or functional assay.
The target in test [2] is T1, CMV pp65 peptide on HLA-A*11:01 (human).
T1 peptide: ATVQGQNLK
The experiment in a line: multimer staining.

B1: Ninth group of TCR (TCR, V domains shown)
V domain 1: EDQVTQSPEALRLQEGESSSLNCSYTVSGLRGLFWYRQDPGKGPEFLFTLYSAGEEKEKERLKATLTKKESFLHITAPKPEDSATYLCVITTSGTYKYIFGTGTRLKVLA
V domain 2: NAGVTQTPKFQVLKTGQSMTLQCAQDMNHNSMYWYRQDPGMGLRLIYYSASEGTTDKGEVPNGYNVSRLNKREFSLRLESAAPSQTSVYFCASTINTYEQYFGPGTRLTVTE
Take B1: in test [1], the “killing activity at 4 h (RTCA), Caki-2-PP65 target cells, effector-to-target ratio 1:1” value was 7.1%; the “killing activity at 4 h (RTCA), Caki-2-PP65 target cells, effector-to-target ratio 5:1” value worked out at 44.5%; the “killing activity at 4 h (RTCA), Caki-2-PP65 target cells, effector-to-target ratio 10:1” value stood at 61.5%.

B2: Ninth group of TCR (TCR, V domains shown)
Valpha: EDQVTQSPEALRLQEGESSSLNCSYTVSGLRGLFWYRQDPGKGPEFLFTLYSAGEEKEKERLKATLTKKESFLHITAPKPEDSATYLCVITTSGTYKYIFGTGTRLKVLA
Vbeta: NAGVTQTPKFQVLKTGQSMTLQCAQDMNHNSMYWYRQDPGMGLRLIYYSASEGTTDKGEVPNGYNVSRLNKREFSLRLESAAPSQTSVYFCASTINTYEQYFGPGTRLTVT
With B2, the binding result in test [2] was “recognises”.

B3: Tenth group of TCR (TCR, V domains shown)
V domain 1: QTVTQSQPEMSVQEAETVTLSCTYDTSESDYYLFWYKQPPSRQMILVIRQEAYKQQNATENRFSVNFQKAAKSFSLKISDSQLGDAAMYFCAYRSFYTGANSKLTFGKGITLSVRP
V domain 2: DAGVTQSPTHLIKTRGQQVTLRCSPKSGHDTVSWYQQALGQGPQFIFQYYEEEERQRGNFPDRFSGHQFPNYSSELNVNALLLGDSALYLCASSLYGGPGDQPQHFGDGTRLSILE
Consider B3, for which, in test [1], the “killing activity at 4 h (RTCA), Caki-2-PP65 target cells, effector-to-target ratio 1:1” value was 23.5%; the “killing activity at 4 h (RTCA), Caki-2-PP65 target cells, effector-to-target ratio 5:1 (ratio cell blank in this row, taken from r7)” value amounted to 61.2%; the “killing activity at 4 h (RTCA), Caki-2-PP65 target cells, effector-to-target ratio 10:1” value came out at 67.4%.

B4: Tenth group of TCR (TCR, V domains shown)
Valpha: AQTVTQSQPEMSVQEAETVTLSCTYDTSESDYYLFWYKQPPSRQMILVIRQEAYKQQNATENRFSVNFQKAAKSFSLKISDSQLGDAAMYFCAYRSFYTGANSKLTFGKGITLSVRP
Vbeta: DAGVTQSPTHLIKTRGQQVTLRCSPKSGHDTVSWYQQALGQGPQFIFQYYEEEERQRGNFPDRFSGHQFPNYSSELNVNALLLGDSALYLCASSLYGGPGDQPQHFGDGTRLSIL
With B4, the binding result in test [2] is “recognises”.
